Results on three molecules are retold here after publication doi:10.1101/2022.08.02.502465.

In series [1] the target is T1, DNA polymerase I (Pol I) (Escherichia coli, UniProt P00582 1-928). Nature of the series: BLI. On the technique in general: BLI is a label-free optical method that tracks binding on a fibre tip over time.
Series [2] concerns the target Pol I Klenow fragment (Pol IKL) (Escherichia coli, UniProt P00582 328-928). The series is described as follows: cryo-EM structure.
Series [3] addresses Pol I endo-mut (endonuclease-dead full-length Pol I) (Escherichia coli, UniProt P00582 1-928, D115A;D140A). The series is described as follows: cryo-EM structure.
Series [4] has as its target T1, DNA polymerase I (Pol I). Nature of the series: BLI. The source holds these as a separate data set.

Read-outs that look alike come from different tables or passages of the source.

B1: primed BLI substrate (mixed)
DNA 1: CGCTCACTGGCCGTCGTTTTACAACGTCGTGACTGGGAAAACCCTGGCGTTACC
DNA 2: ACGACGTTGTAAAACGACGGCCAGTGAGCG
What is called Kd is a measure of binding affinity in units of concentration. Low readings indicate higher affinity, high ones lower affinity. As for B1, the affinity in series [1], expressed as Kd, was 42 ± 5 nM.

B2: flapped Okazaki fragment DNA (cryo-EM) (mixed)
DNA 1: CGCTCACTGGCCGTCGTTTTACAACGTCGTGACTGGGAAAACCCTGGCGTTACC
DNA 2: GGTAACGCCAGGGTTTTCCCAGTC
DNA 3: TTTTTTACGACGTTGTAAAACGACGGCCAGTGAGCG
For the molecule B2, the binding result in series [2] and in series [3] was “binds” each time.

B3: continuous BLI substrate (dsDNA)
DNA 1: GGTAACGCCAGGGTTTTCCCAGTCACGACGTTGTAAAACGACGGCCAGTGAGCG
DNA 2: CGCTCACTGGCCGTCGTTTTACAACGTCGTGACTGGGAAAACCCTGGCGTTACC
In the case of B3, in series [4], binding was characterised by a dissociation constant (Kd) of 285 ± 5 nM.
